One assay addresses T1, B7-H3 peptide 8 (human).
T1 peptide: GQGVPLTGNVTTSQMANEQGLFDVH
The assay is described as follows: biolayer interferometry (Octet), epitope mapping table [panel D, row Peptide 8]. As to the method: (§1) The Octet RED384 System (FortdBio) was used to further characterize the chimeric and murine clones. The kinetics of the clones were tested by measuring the interaction between the antibody and its target by bio-layer interferometry technology.
(§2) The inventors generated 10 peptides from the extracellular domain of B7-H3 with a span of 25 amino acids and an overlap of 5 amino acids with each subsequent peptide.
(In general: Biolayer interferometry detects binding as a change in optical thickness at a sensor tip.)

The target in a further assay is T2, B7-H3 peptide 10 (human).
T2 peptide: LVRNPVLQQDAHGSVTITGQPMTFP
The assay is described as follows: biolayer interferometry (Octet), epitope mapping table [panel D, row Peptide 10]. How it is done: as §1, §2

Assay [1] has as its target T3, B7-H3 peptide 4 (human).
T3 peptide: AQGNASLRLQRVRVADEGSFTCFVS
Description: biolayer interferometry (Octet) traces, concentrations not printed [Peptide 4, column ChT-1A5]. As to the method: as §1, §2

Assay [2] concerns the target T4, B7-H3 peptide 6 (human).
T4 peptide: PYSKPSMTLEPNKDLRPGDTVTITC
The assay is described as follows: biolayer interferometry (Octet), epitope mapping table [panel D, row Peptide 6]. As to the method:
as §1, §2

Another assay addresses T5, B7-H3 peptide 7 (human).
T5 peptide: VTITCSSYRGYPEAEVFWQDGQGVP
The assay is described as follows: biolayer interferometry (Octet), epitope mapping table [panel D, row Peptide 7]. As to the method: as §1, §2

The target in assay [3] is T6, B7-H3 peptide 1 (human).
T6 peptide: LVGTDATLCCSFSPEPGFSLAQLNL
The assay is described as follows: biolayer interferometry (Octet) traces, concentrations not printed [Peptide 1, column ChT-1A5].

The target in assay [4] is T7, B7-H3 peptide 2 (human).
T7 peptide: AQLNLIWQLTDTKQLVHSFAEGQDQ
The assay is described as follows: biolayer interferometry (Octet) traces, concentrations not printed [Peptide 2, column ChT-1A5].

The target of assay [5] is T8, B7-H3 peptide 3 (human).
T8 peptide: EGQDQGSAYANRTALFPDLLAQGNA
The assay is described as follows: biolayer interferometry (Octet) traces, concentrations not printed [Peptide 3, column ChT-1A5].

Assay [6] deals with T3, B7-H3 peptide 4. The assay is described as follows: biolayer interferometry (Octet) traces, concentrations not printed [Peptide 4, column T-1A5].
Assay [7] has as its target T9, B7-H3 peptide 5 (human).
T9 construct: Said to lie in the IgV domain spanning through the FG loop
T9 peptide: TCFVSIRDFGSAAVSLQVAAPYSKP
The assay is described as follows: biolayer interferometry (Octet), number beside the raw traces [panel D, T-1A5-peptide 5].

Assay [8] has as its target T8, B7-H3 peptide 3. Description: biolayer interferometry (Octet) traces, concentrations not printed [Peptide 3, column T-1A5].
The target in assay [9] is T9, B7-H3 peptide 5. Description: biolayer interferometry (Octet), epitope mapping with B7-H3 peptides [panel D, row Peptide 5]. How it is done: as §1, §2
Assay [10] concerns the target T4, B7-H3 peptide 6. Description: biolayer interferometry (Octet) traces, concentrations not printed [continued), Peptide 6, left column]. As to the method:
as §1, §2

Assay [11] addresses T7, B7-H3 peptide 2. Description: biolayer interferometry (Octet) traces, concentrations not printed [Peptide 2, column T-1A5]. How it is done: as §1, §2
The target in assay [12] is T6, B7-H3 peptide 1. The assay is described as follows: biolayer interferometry (Octet), epitope mapping table [panel D, row Peptide 1]. As to the method: as §1, §2

B1: human-mouse chimeric anti-B7-H3 antibody ChT-1A5 (antibody, human IgG1, kappa)
heavy: not shown
light: QIVLIQSPAIMSASPGEKVTMTCSASSSISYMYWYQQKPGTSPKRWIFETSKLASGVPARFSGSGSGTSYSLTISSMEAEDAATYYCHQRSSYPTFGGGTKLEIKRTVAAPSVFIFPPSDEQLKSGTASVVCLLNNFYPREAKVQWKVDNALQSGNSQESVTEQDSKDSTYSLSSTLTLSKADYEKHKVYACEVTHQGLSSPVTKSFNRGEC
notes: also called chimeric T-1A5 antibody
For B1, the binding result in the assay with B7-H3 peptide 8, in the assay with B7-H3 peptide 10, with B7-H3 peptide 4 [1], with B7-H3 peptide 6 [2], with B7-H3 peptide 7 and in the assay with B7-H3 peptide 1 [3] was “no binding” throughout. In addition, the binding result with B7-H3 peptide 2 [4] and with B7-H3 peptide 3 [5] was “no binding” each time.

B2: anti-B7-H3 monoclonal antibody T-1A5 (mouse, isotype IgG1) (antibody)
heavy: QVQLQQSGAELVKPGASVKLSCKASGYTFTSYDINWVRQRPEQGLEWIGWIFPGDDTTNYNENFKGKATLTADKSSSTAYMQLTRLTSEDSAVFFCARSVGFDYWGQGTTLTVSSAKTTPPSVYPLAPGSAAQTNSMVTLGCLVKGYFPEPVTVTWNSGSLSSGVHTFPAVLQSDLYTLSSSVTVPSSTWPSETVTCNVAHPASSTKVDKKIVPRDCGCKPCICTVPEVSSVFIFPPKPKDVLTITLTPKVTCVVVDISKDDPEVQFSWFVDDVEVHTAQTQPREEQFNSTFRSVSELPIMHQDWLNGKEFKCRVNSAAFPAPIEKTISKTKGRPKAPQVYTIPPPKEQMAKDKVSLTCMITDFFPEDITVEWQWNGQPAENYKNTQPIMDTDGSYFVYSKLNVQKSNWEAGNTFTCSVLHEGLHNHHTEKSLSHSPGK
light: QIVLIQSPAIMSASPGEKVTMTCSASSSISYMYWYQQKPGTSPKRWIFETSKLASGVPARFSGSGSGTSYSLTISSMEAEDAATYYCHQRSSYPTFGGGTKLEIKRADAAPTVSIFPPSSEQLTSGGASVVCFLNNFYPKDINVKWKIDGSERQNGVLNSWTDQDSKDSTYSMSSTLTLTKDEYERHNSYTCEATHKTSTSPIVKSFNRNEC
notes: also called T-1A5A10; mAb T-1A5
What is called Kd is a measure of binding affinity in units of concentration. Low readings indicate tighter binding, high ones weaker binding. As to B2, the binding result with B7-H3 peptide 8, with B7-H3 peptide 4 [6], in the assay with B7-H3 peptide 10, with B7-H3 peptide 7, with B7-H3 peptide 3 [8] and in the assay with B7-H3 peptide 6 [10] was “no binding” in each case. Further, the binding result with B7-H3 peptide 2 [11] and in the assay with B7-H3 peptide 1 [12] was “no binding” each time. Further, the Kd with B7-H3 peptide 5 [7] and with B7-H3 peptide 5 [9] was 151 nM in each case.

For the origin of these results see patent publication US20250230244A1 (University of Texas, published 2025).
